B1: HDV Ribozyme (parent)
chain: GGCCGGCAUGGUCCCAGCCUCCUCGCUGGCGCCGGCUGGGCAACAUUCCGAGGGGACCGUCCCCUCGGUAAUGGCGAAUGGGACCCA

Variants of: B1
Assay: self-cleavage, relative activity (ratio to wild type); higher = more cleavage; co-transcriptional

| Variant | self-cleavage |
| --- | --- |
| GGCCGGCAUGGUCCCAGCCUCCUCGCUGGCGCCGGCUGGGCAACAUGCCGAGGGGACCGUCCUCUCGGUAAUGGCGAAUGGGACCCA [U47G C63U] | 1.27 |
| GGCCGGCAUGGUCCCAGCCUCCUCGCUGGCGCCGGCUGGGCAACAUCCCGAGGGGACCGUCCCCUCGGUAAGGGCGAAUGGGACCCA [U47C U72G] | 0.791 |
| GGCCGGCAUGGUCCCAGCCUCCUCGCUGGCGCCGGCUGGGCAACAUCCCGAGGGGACCGUCCCCUCGGUAAUGGCGAAAGGGACCCA [U47C U79A] | 0.65 |
| GGCCGGCAUGGUCCCAGCCUCCUCGCUGGCGCCGGCUGGGCAACAUCCCGAGGGGACCGUCCCCUCGGUAAUGGCGAACGGGACCCA [U47C U79C] | 0.297 |
| GGCCGGCAUGGUCCCAGCCUCCUCGCUGGCGCCGGCUGGGCAACAUCCCGAGGGGACCGUCCCCUCGGUAAUGGCGAAGGGGACCCA [U47C U79G] | 0.415 |
| GGCCGGCAUGGUCCCAGCCUCCUCGCUGGCGCCGGCUGGGCAACAUGCCGAGGGGACCGUCCCCUCGGUAAUGGCGAAUGGCACCCA [U47G G82C] | 0.237 |
| GGCCGGCAUGGUCCCAGCCUCCUCGCUGGCGCCGGCUGGGCAACAUUACGAGGGGACCGUCCCCUCGUUAAUGGCGAAUGGGACCCA [C48A G68U] | 1.1 |
| GGCCGGCAUGGUCCCAGCCUCCUCGCUGGCGCCGGCUGGGCAACAUCCCGAGGGGACCGUCCCCUCGGUAAUGGCGAAUUGGACCCA [U47C G80U] | 0.29 |
| GGCCGGCAUGGUCCCAGCCUCCUCGCUGGCGCCGGCUGGGCAACAUGCCGAGGGGACCGUCCCCUCGGUAAUGGCGGAUGGGACCCA [U47G A77G] | 0.923 |
| GGCCGGCAUGGUCCCAGCCUCCUCGCUGGCGCCGGCUGGGCAACAUUACGAGGGGACCGUCCCCUCGGUAAUGGCGGAUGGGACCCA [C48A A77G] | 0.601 |
| GGCCGGCAUGGUCCCAGCCUCCUCGCUGGCGCCGGCUGGGCAACAUUACGAGGGGACCGUCCCCUCGGUAAUGGCGCAUGGGACCCA [C48A A77C] | 0.237 |
| GGCCGGCAUGGUCCCAGCCUCCUCGCUGGCGCCGGCUGGGCAACAUUACGAGGGGACCGUCCCCUCGGUAAUGGCGUAUGGGACCCA [C48A A77U] | 0.673 |
| GGCCGGCAUGGUCCCAGCCUCCUCGCUGGCGCCGGCUGGGCAACAUUACGAGGGGACCGUCACCUCGGUAAUGGCGAAUGGGACCCA [C48A C62A] | 0.878 |
| GGCCGGCAUGGUCCCAGCCUCCUCGCUGGCGCCGGCUGGGCAACAUUACGAGGGGACCGUCCCCUCGGUAAUGGCGAAUUGGACCCA [C48A G80U] | 0.242 |
| GGCCGGCAUGGUCCCAGCCUCCUCGCUGGCGCCGGCUGGGCAACAUUACGAGGGGACCGUACCCUCGGUAAUGGCGAAUGGGACCCA [C48A C61A] | 1.02 |
| GGCCGGCAUGGUCCCAGCCUCCUCGCUGGCGCCGGCUGGGCAACAUGCCUAGGGGACCGUCCCCUCGGUAAUGGCGAAUGGGACCCA [U47G G50U] | 0.831 |
| GGCCGGCAUGGUCCCAGCCUCCUCGCUGGCGCCGGCUGGGCAACAUUACGAGGGGACCGUCCCCUCGGUAAUGCCGAAUGGGACCCA [C48A G74C] | 0.208 |
| GGCCGGCAUGGUCCCAGCCUCCUCGCUGGCGCCGGCUGGGCAACAUGCUGAGGGGACCGUCCCCUCGGUAAUGGCGAAUGGGACCCA [U47G C49U] | 1.32 |
| GGCCGGCAUGGUCCCAGCCUCCUCGCUGGCGCCGGCUGGGCAACAUGCGGAGGGGACCGUCCCCUCGGUAAUGGCGAAUGGGACCCA [U47G C49G] | 0.87 |
| GGCCGGCAUGGUCCCAGCCUCCUCGCUGGCGCCGGCUGGGCAACAUGCCGAGGGGACCGUCCCCUCGGUAAUGGCGAAUGGGACCCU [U47G A87U] | 0.974 |
| GGCCGGCAUGGUCCCAGCCUCCUCGCUGGCGCCGGCUGGGCAACAUGCCGAGGGGACCGUGCCCUCGGUAAUGGCGAAUGGGACCCA [U47G C61G] | 0.554 |
| GGCCGGCAUGGUCCCAGCCUCCUCGCUGGCGCCGGCUGGGCAACAUGCCGAGGGGACCGUUCCCUCGGUAAUGGCGAAUGGGACCCA [U47G C61U] | 0.943 |

| Variant | self-cleavage |
| --- | --- |
| GGCCGGCAUGGUCCCAGCCUCCUCGCUGGCGCCGGCUGGGCAACAUUACGAGGGGACCGUCCCCUCGGUACUGGCGAAUGGGACCCA [C48A A71C] | 0.688 |
| GGCCGGCAUGGUCCCAGCCUCCUCGCUGGCGCCGGCUGGGCAACAUUACGAGGGGACCGUCCCCUCGGUAUUGGCGAAUGGGACCCA [C48A A71U] | 0.867 |
| GGCCGGCAUGGUCCCAGCCUCCUCGCUGGCGCCGGCUGGGCAACAUGCCGAGGGGACCGUCCCCUCGGUAAUGGCGAAUGGGACCAA [U47G C86A] | 0.814 |
| GGCCGGCAUGGUCCCAGCCUCCUCGCUGGCGCCGGCUGGGCAACAUGCCGAGGGGACUGUCCCCUCGGUAAUGGCGAAUGGGACCCA [U47G C58U] | 0.942 |
| GGCCGGCAUGGUCCCAGCCUCCUCGCUGGCGCCGGCUGGGCAACAUGCCGAGGGGACCGUCCCCUCGGUAAUGGCGAAUGCGACCCA [U47G G81C] | 0.128 |
| GGCCGGCAUGGUCCCAGCCUCCUCGCUGGCGCCGGCUGGGCAACAUUACGAGGGGACCGUCCCCUCGGUAAUGGCGAAUGGCACCCA [C48A G82C] | 0.35 |
| GGCCGGCAUGGUCCCAGCCUCCUCGCUGGCGCCGGCUGGGCAACAUUACGAGGGGACUGUCCCCUCGGUAAUGGCGAAUGGGACCCA [C48A C58U] | 1.11 |
| GGCCGGCAUGGUCCCAGCCUCCUCGCUGGCGCCGGCUGGGCAACAUCCCGAGGGGACCGUCCCCACGGUAAUGGCGAAUGGGACCCA [U47C U65A] | 0.923 |
| GGCCGGCAUGGUCCCAGCCUCCUCGCUGGCGCCGGCUGGGCAACAUGCCGAGUGGACCGUCCCCUCGGUAAUGGCGAAUGGGACCCA [U47G G53U] | 0.973 |
| GGCCGGCAUGGUCCCAGCCUCCUCGCUGGCGCCGGCUGGGCAACAUUACGAGGCGACCGUCCCCUCGGUAAUGGCGAAUGGGACCCA [C48A G54C] | 1.17 |
| GGCCGGCAUGGUCCCAGCCUCCUCGCUGGCGCCGGCUGGGCAACAUUACGAGGUGACCGUCCCCUCGGUAAUGGCGAAUGGGACCCA [C48A G54U] | 0.975 |
| GGCCGGCAUGGUCCCAGCCUCCUCGCUGGCGCCGGCUGGGCAACAUUACGAGGAGACCGUCCCCUCGGUAAUGGCGAAUGGGACCCA [C48A G54A] | 1.06 |
| GGCCGGCAUGGUCCCAGCCUCCUCGCUGGCGCCGGCUGGGCAACAUGCCGAGGGGACCGUCCCCUCGGAAAUGGCGAAUGGGACCCA [U47G U69A] | 1.27 |
| GGCCGGCAUGGUCCCAGCCUCCUCGCUGGCGCCGGCUGGGCAACAUUACGAGGGGACCGUCCCUUCGGUAAUGGCGAAUGGGACCCA [C48A C64U] | 0.923 |
| GGCCGGCAUGGUCCCAGCCUCCUCGCUGGCGCCGGCUGGGCAACAUGCCGAUGGGACCGUCCCCUCGGUAAUGGCGAAUGGGACCCA [U47G G52U] | 0.877 |
| GGCCGGCAUGGUCCCAGCCUCCUCGCUGGCGCCGGCUGGGCAACAUGCCGAGGGGACCGUCCCCUCGGUAAUGGCGAAUGGGCCCCA [U47G A83C] | 0.434 |
| GGCCGGCAUGGUCCCAGCCUCCUCGCUGGCGCCGGCUGGGCAACAUCCCGAGGGGACCGUCCCCUCGGUAAUGGCAAAUGGGACCCA [U47C G76A] | 0.787 |
| GGCCGGCAUGGUCCCAGCCUCCUCGCUGGCGCCGGCUGGGCAACAUCCCGAGGGGACCGCCCCCUCGGUAAUGGCGAAUGGGACCCA [U47C U60C] | 1.05 |
| GGCCGGCAUGGUCCCAGCCUCCUCGCUGGCGCCGGCUGGGCAACAUGCCGAGGGGACCGUCCCCUCGGUAAUGGCGAGUGGGACCCA [U47G A78G] | 1.19 |
| GGCCGGCAUGGUCCCAGCCUCCUCGCUGGCGCCGGCUGGGCAACAUUACGAGGGGACCGUCCCCUCGGUAAUGGCGAAUGGGACCCC [C48A A87C] | 1.16 |
| GGCCGGCAUGGUCCCAGCCUCCUCGCUGGCGCCGGCUGGGCAACAUUACGAGGGGACCGUCCCCUCGGUAAUGGCGAAUGGGACCCU [C48A A87U] | 1.03 |
| GGCCGGCAUGGUCCCAGCCUCCUCGCUGGCGCCGGCUGGGCAACAUUACGAGGGGACCAUCCCCUCGGUAAUGGCGAAUGGGACCCA [C48A G59A] | 1.22 |

| Variant | self-cleavage |
| --- | --- |
| GGCCGGCAUGGUCCCAGCCUCCUCGCUGGCGCCGGCUGGGCAACAUGCCGAGGGGACCGUCCCCUCGGUAAUGGCGAAUGGGACACA [U47G C85A] | 0.959 |
| GGCCGGCAUGGUCCCAGCCUCCUCGCUGGCGCCGGCUGGGCAACAUGCCGAGGGGACCGUCCCCUCGGUAAUGGCGAAUGGGACGCA [U47G C85G] | 1.18 |
| GGCCGGCAUGGUCCCAGCCUCCUCGCUGGCGCCGGCUGGGCAACAUUACGACGGGACCGUCCCCUCGGUAAUGGCGAAUGGGACCCA [C48A G52C] | 1.03 |
| GGCCGGCAUGGUCCCAGCCUCCUCGCUGGCGCCGGCUGGGCAACAUGCCGAGGGGACCGUCGCCUCGGUAAUGGCGAAUGGGACCCA [U47G C62G] | 0.534 |
| GGCCGGCAUGGUCCCAGCCUCCUCGCUGGCGCCGGCUGGGCAACAUGCCGAGGGGACCGUCACCUCGGUAAUGGCGAAUGGGACCCA [U47G C62A] | 1.02 |
| GGCCGGCAUGGUCCCAGCCUCCUCGCUGGCGCCGGCUGGGCAACAUUACGAGGGGACCGUCCCCUCGGUAAUAGCGAAUGGGACCCA [C48A G73A] | 0.755 |
| GGCCGGCAUGGUCCCAGCCUCCUCGCUGGCGCCGGCUGGGCAACAUGCCGAGGGGACCGUCCCCUCGGUAUUGGCGAAUGGGACCCA [U47G A71U] | 1.18 |
| GGCCGGCAUGGUCCCAGCCUCCUCGCUGGCGCCGGCUGGGCAACAUCCCGAGGGGACCGUCCCCUCGGUAAUGGCGAAUGCGACCCA [U47C G81C] | 0.151 |
| GGCCGGCAUGGUCCCAGCCUCCUCGCUGGCGCCGGCUGGGCAACAUGCCGAGGGGAUCGUCCCCUCGGUAAUGGCGAAUGGGACCCA [U47G C57U] | 0.985 |
| GGCCGGCAUGGUCCCAGCCUCCUCGCUGGCGCCGGCUGGGCAACAUUACGAGGGGCCCGUCCCCUCGGUAAUGGCGAAUGGGACCCA [C48A A56C] | 1.18 |
| GGCCGGCAUGGUCCCAGCCUCCUCGCUGGCGCCGGCUGGGCAACAUGCCGAGGGGACCGUCCCCUCGGUAAUGGCGAACGGGACCCA [U47G U79C] | 0.322 |
| GGCCGGCAUGGUCCCAGCCUCCUCGCUGGCGCCGGCUGGGCAACAUGCCGAGGGGACCAUCCCCUCGGUAAUGGCGAAUGGGACCCA [U47G G59A] | 1.14 |
| GGCCGGCAUGGUCCCAGCCUCCUCGCUGGCGCCGGCUGGGCAACAUGCCGAGGGGACCUUCCCCUCGGUAAUGGCGAAUGGGACCCA [U47G G59U] | 1.12 |
| GGCCGGCAUGGUCCCAGCCUCCUCGCUGGCGCCGGCUGGGCAACAUUACGGGGGGACCGUCCCCUCGGUAAUGGCGAAUGGGACCCA [C48A A51G] | 0.903 |
| GGCCGGCAUGGUCCCAGCCUCCUCGCUGGCGCCGGCUGGGCAACAUUACGCGGGGACCGUCCCCUCGGUAAUGGCGAAUGGGACCCA [C48A A51C] | 1.03 |
| GGCCGGCAUGGUCCCAGCCUCCUCGCUGGCGCCGGCUGGGCAACAUGCCGAGGGGACCGUCCCUUCGGUAAUGGCGAAUGGGACCCA [U47G C64U] | 1.28 |
| GGCCGGCAUGGUCCCAGCCUCCUCGCUGGCGCCGGCUGGGCAACAUUACGAGGGGACCGUCCCCUAGGUAAUGGCGAAUGGGACCCA [C48A C66A] | 0.92 |
| GGCCGGCAUGGUCCCAGCCUCCUCGCUGGCGCCGGCUGGGCAACAUUACGAGGGGACCGUCCCCUUGGUAAUGGCGAAUGGGACCCA [C48A C66U] | 0.988 |
| GGCCGGCAUGGUCCCAGCCUCCUCGCUGGCGCCGGCUGGGCAACAUGCCGAGGGGACCGUCCCCGCGGUAAUGGCGAAUGGGACCCA [U47G U65G] | 0.95 |
| GGCCGGCAUGGUCCCAGCCUCCUCGCUGGCGCCGGCUGGGCAACAUGCCGAGGGGACCGUCCCCCCGGUAAUGGCGAAUGGGACCCA [U47G U65C] | 0.923 |
